This note sets out measurements from the RNAGym collection of RNA variant scans (doi:10.7554/elife.80360).

To fix the notation:
B1: HDV Ribozyme (parent)
chain: GGCCGGCAUGGUCCCAGCCUCCUCGCUGGCGCCGGCUGGGCAACAUUCCGAGGGGACCGUCCCCUCGGUAAUGGCGAAUGGGACCCA

The variants in the data set derive from B1. Description: self-cleavage, relative activity (ratio to wild type); higher = more cleavage; co-transcriptional.
For C15A G81A, the self-cleavage was determined as 0.57.

Consider C15G A51U, for which the self-cleavage was 0.475.

For A16G G39C, the self-cleavage is 0.0791.

As for C15G C49U, the self-cleavage was 0.554.

With C15G C61A, the self-cleavage stood at 0.516.

For A16G A43G, the self-cleavage came out at 0.266.

As to A16U A56U, the self-cleavage was 1.15.

Turning to C15U U37G, the self-cleavage came out at 0.158.

Consider C15U U65A, for which the self-cleavage was determined as 0.831.

Take C15G C24U: the self-cleavage came out at 0.196.

Consider A16C A77G, for which the self-cleavage stood at 0.831.

For the variant C15U C33U, the self-cleavage came out at 0.708.

Consider A16U A78C, for which the self-cleavage worked out at 0.156.

As to A16U G17A, the self-cleavage is 0.712.

As for C15G G28C, the self-cleavage is 0.107.

As for C15U A51U, the self-cleavage was 1.08.

With A16C C64G, the self-cleavage was found to be 0.554.

Consider A16C C64A, for which the self-cleavage was determined as 0.895.

In the case of C15U G67A, the self-cleavage was 0.808.

Regarding C15U G67U, the self-cleavage is 0.972.

Consider C15U G67C, for which the self-cleavage is 0.883.

Take C15A U65G: the self-cleavage is 0.653.

On to A16U C61A, for which the self-cleavage turned out to be 1.11.

For the variant C15G G31A, the self-cleavage came to 0.138.

Take C15A C63U: the self-cleavage is 0.649.

For A16U C44G, the self-cleavage came to 0.604.

Regarding C15G C66U, the self-cleavage turned out to be 0.573.

As for A16U C57A, the self-cleavage was 1.17.

On to C15U C22G, for which the self-cleavage turned out to be 0.147.

Turning to C15G G55A, the self-cleavage turned out to be 0.522.

C15U U69C: the self-cleavage was 0.643.

With A16C G40C, the self-cleavage turned out to be 0.201.

Turning to C15U C75U, the self-cleavage was 0.227.

As for C15U C75A, the self-cleavage was found to be 0.0326.

In the case of C15A U37G, the self-cleavage was determined as 0.0755.

On to A16U A51U, for which the self-cleavage came out at 0.914.

For the variant A16U A51C, the self-cleavage came to 0.923.

For C15G C30G, the self-cleavage was determined as 0.317.

A16C A71G: the self-cleavage amounted to 0.7.

Take A16C A71U: the self-cleavage is 0.623.

A16C A43C: the self-cleavage stood at 0.415.

Turning to C15A C57U, the self-cleavage turned out to be 0.8.

C15A C57G: the self-cleavage came to 0.623.

For C15A C57A, the self-cleavage turned out to be 0.764.

On to C15A G80C, for which the self-cleavage was found to be 0.222.

As to C15A G80U, the self-cleavage turned out to be 0.899.

Consider C15A G17U, for which the self-cleavage is 0.252.

As to C15A G17A, the self-cleavage stood at 0.302.

Regarding A16C G50C, the self-cleavage is 0.959.

On to A16C A42U, for which the self-cleavage stood at 0.208.

Consider C15A G34C, for which the self-cleavage stood at 0.256.

For C15A G34U, the self-cleavage turned out to be 0.

For C15G G35U, the self-cleavage worked out at 0.0396.

Consider A16G G53A, for which the self-cleavage amounted to 1.04.

Consider A16U C64A, for which the self-cleavage came to 0.743.

Regarding C15U A56G, the self-cleavage came to 1.35.

Regarding C15A G53A, the self-cleavage worked out at 0.866.

In the case of A16G A77G, the self-cleavage came out at 0.831.

Take A16G G29A: the self-cleavage was 0.252.

On to A16G G82A, for which the self-cleavage stood at 0.453.

In the case of A16G G82C, the self-cleavage was found to be 0.172.

On to C15G G59U, for which the self-cleavage came to 0.375.

C15A G54C: the self-cleavage was 0.806.

As for A16C U72C, the self-cleavage amounted to 0.227.

C15A G67A: the self-cleavage stood at 0.499.

In the case of C15A G68A, the self-cleavage is 0.511.

For C15A G68C, the self-cleavage worked out at 0.458.

With A16C C48U, the self-cleavage is 0.677.

Take A16G C26A: the self-cleavage is 0.867.

As for A16G C26G, the self-cleavage is 0.831.

In the case of A16G C26U, the self-cleavage is 0.86.

For A16C G55A, the self-cleavage came out at 0.554.

Consider C15U G53C, for which the self-cleavage turned out to be 0.956.

C15G A87C: the self-cleavage came out at 0.799.

With C15G C86U, the self-cleavage stood at 0.791.

For A16G G17U, the self-cleavage amounted to 0.643.

Consider A16G G17C, for which the self-cleavage was determined as 0.214.

On to A16U C33U, for which the self-cleavage was found to be 0.684.

As to A16U C33G, the self-cleavage worked out at 0.166.

With A16U G50A, the self-cleavage worked out at 0.933.

Consider C15G A83C, for which the self-cleavage was found to be 0.249.

In the case of C15G A83U, the self-cleavage is 0.0791.

As to A16C C18G, the self-cleavage was determined as 0.

For the variant A16C A51U, the self-cleavage came to 0.935.

For C15U U47C, the self-cleavage came to 0.779.

Take C15U U47G: the self-cleavage was found to be 0.89.

As to A16G G73A, the self-cleavage was found to be 0.396.

As for A16G G73C, the self-cleavage worked out at 0.431.

Consider A16U C85A, for which the self-cleavage turned out to be 1.1.

In the case of A16U C85G, the self-cleavage turned out to be 1.03.

As for A16G U46C, the self-cleavage was found to be 0.293.

Take C15G G38U: the self-cleavage turned out to be 0.

As to C15U C41G, the self-cleavage was found to be 0.475.

On to C15G U79C, for which the self-cleavage came to 0.342.

In the case of C15G U79G, the self-cleavage is 0.391.

For the variant C15A A77G, the self-cleavage is 0.485.

In the case of C15A A77C, the self-cleavage turned out to be 0.0978.

For C15G C57U, the self-cleavage was 0.554.

With C15G C57G, the self-cleavage is 0.692.

As for C15G C64U, the self-cleavage amounted to 1.02.

Take C15A G59U: the self-cleavage was determined as 0.623.

Take C15A G59A: the self-cleavage stood at 0.543.

Take C15U C64G: the self-cleavage is 0.962.

In the case of C15A C21U, the self-cleavage worked out at 0.0415.

With C15A C21A, the self-cleavage was 0.

Turning to A16U G67U, the self-cleavage is 0.975.

Regarding C15U A83C, the self-cleavage amounted to 0.65.

On to A16G G31C, for which the self-cleavage came to 0.208.

For A16U G55C, the self-cleavage is 0.98.

In the case of C15G G52C, the self-cleavage came out at 0.95.

With A16C C57U, the self-cleavage is 0.719.

In the case of C15G C58G, the self-cleavage came to 0.612.

As for A16U A43U, the self-cleavage was 0.443.

For C15A G82U, the self-cleavage was found to be 0.232.

Turning to A16U G25C, the self-cleavage was 0.32.

C15U A71U: the self-cleavage is 0.598.

For the variant C15U C18A, the self-cleavage worked out at 0.0639.

C15A A45C: the self-cleavage came out at 0.151.

In the case of C15A A45G, the self-cleavage worked out at 0.8.

With A16G G55A, the self-cleavage came to 0.943.

For the variant C15U C62G, the self-cleavage is 0.851.

Turning to C15G A78G, the self-cleavage is 0.

Regarding A16U U23G, the self-cleavage came out at 0.575.

In the case of A16U U23A, the self-cleavage came to 0.739.

On to A16U G38U, for which the self-cleavage stood at 0.253.

As for A16U G38A, the self-cleavage is 0.113.

On to A16G G81A, for which the self-cleavage worked out at 0.604.

As to A16C G31A, the self-cleavage turned out to be 0.297.

Turning to C15U G80C, the self-cleavage was determined as 0.177.

C15G G76C: the self-cleavage came out at 0.467.

For the variant C15U G25A, the self-cleavage was 0.0898.

Take A16U C84A: the self-cleavage was 0.665.

For C15U G82A, the self-cleavage was determined as 0.325.

On to C15G G82A, for which the self-cleavage amounted to 0.0978.

As to C15G A42G, the self-cleavage turned out to be 0.166.

C15G A42C: the self-cleavage turned out to be 0.0755.

As to C15G A42U, the self-cleavage worked out at 0.0504.

As for C15U U72A, the self-cleavage turned out to be 0.485.

As for C15A C44A, the self-cleavage came out at 0.529.

In the case of A16C G59A, the self-cleavage came to 0.649.

A16G G52A: the self-cleavage was determined as 0.975.

For the variant A16U C62A, the self-cleavage was determined as 0.897.

Turning to C15G U27C, the self-cleavage was 0.277.

Regarding C15G U27G, the self-cleavage came to 0.104.

As for C15U G34A, the self-cleavage came out at 0.173.

As for C15A C33U, the self-cleavage worked out at 0.427.

For the variant A16U C24G, the self-cleavage came out at 0.237.

Regarding A16U C24A, the self-cleavage stood at 0.482.

For A16G A51C, the self-cleavage came out at 1.05.

As for C15A A78C, the self-cleavage worked out at 0.0652.

Regarding C15G C48G, the self-cleavage stood at 0.739.

In the case of C15A C36G, the self-cleavage was determined as 0.145.

A16G C18G: the self-cleavage was found to be 0.111.

For A16C C58G, the self-cleavage was determined as 0.532.

On to A16G C64A, for which the self-cleavage was determined as 0.782.

Take C15A C19G: the self-cleavage worked out at 0.0519.

Regarding C15A C19U, the self-cleavage stood at 0.089.

Take A16G G74C: the self-cleavage stood at 0.435.

With A16G G74A, the self-cleavage was determined as 0.404.

In the case of C15U A77U, the self-cleavage worked out at 0.246.

As to C15G G17U, the self-cleavage stood at 0.243.

For the variant C15G G50C, the self-cleavage came out at 0.575.

On to C15G G50U, for which the self-cleavage was found to be 0.598.

As for C15U A78G, the self-cleavage was found to be 0.332.

With A16C G68C, the self-cleavage amounted to 0.748.

Take A16C G68U: the self-cleavage stood at 0.697.

Regarding A16C U20G, the self-cleavage turned out to be 0.
